Results taken from patent US20110305629A1.

What was measured:
αvβ6 = αvβ6 (UniProt P06756); experiment: binding ELISA; murine secondary
[1] = target: rhesus monkey αvβ6 integrin on 4MBr5 cells (rhesus monkey) (UniProt H9ETF2); experiment: cell adhesion assay: labelled 4MBr5 cells on LAP-coated plate, inhibition by m3G9
[2] = target: African green monkey αvβ6 integrin on 12MBr6 cells (African green monkey); experiment: cell adhesion assay: 12MBr6 cells to LAP; the text gives the cell lines the other way round than the table
[3] = target: African green monkey αvβ6 integrin on 12MBr6 cells (African green monkey); experiment: flow cytometry titration on 12MBr6 cells; given as ED50; the text gives the cell lines the other way round than the table
[4] = target: rhesus monkey αvβ6 integrin on 4MBr5 cells (rhesus monkey) (UniProt H9ETF2); experiment: flow cytometry titration on 4MBr5 cells; given as ED50
[5] = target: rhesus monkey αvβ6 integrin on 4MBr5 cells (rhesus monkey) (UniProt H9ETF2); experiment: flow cytometry titration on 4MBr5 cells; given as ED50; the text gives the cell lines the other way round than the table
[6] = target: human αvβ6 integrin on cells (human) (UniProt P06756); experiment: cell adhesion assay: SW480β6 cells to LAP, inhibition by m3G9
human αvβ6 integrin on cells (human), sequence (P06756 31-1048, chain 1 of 2): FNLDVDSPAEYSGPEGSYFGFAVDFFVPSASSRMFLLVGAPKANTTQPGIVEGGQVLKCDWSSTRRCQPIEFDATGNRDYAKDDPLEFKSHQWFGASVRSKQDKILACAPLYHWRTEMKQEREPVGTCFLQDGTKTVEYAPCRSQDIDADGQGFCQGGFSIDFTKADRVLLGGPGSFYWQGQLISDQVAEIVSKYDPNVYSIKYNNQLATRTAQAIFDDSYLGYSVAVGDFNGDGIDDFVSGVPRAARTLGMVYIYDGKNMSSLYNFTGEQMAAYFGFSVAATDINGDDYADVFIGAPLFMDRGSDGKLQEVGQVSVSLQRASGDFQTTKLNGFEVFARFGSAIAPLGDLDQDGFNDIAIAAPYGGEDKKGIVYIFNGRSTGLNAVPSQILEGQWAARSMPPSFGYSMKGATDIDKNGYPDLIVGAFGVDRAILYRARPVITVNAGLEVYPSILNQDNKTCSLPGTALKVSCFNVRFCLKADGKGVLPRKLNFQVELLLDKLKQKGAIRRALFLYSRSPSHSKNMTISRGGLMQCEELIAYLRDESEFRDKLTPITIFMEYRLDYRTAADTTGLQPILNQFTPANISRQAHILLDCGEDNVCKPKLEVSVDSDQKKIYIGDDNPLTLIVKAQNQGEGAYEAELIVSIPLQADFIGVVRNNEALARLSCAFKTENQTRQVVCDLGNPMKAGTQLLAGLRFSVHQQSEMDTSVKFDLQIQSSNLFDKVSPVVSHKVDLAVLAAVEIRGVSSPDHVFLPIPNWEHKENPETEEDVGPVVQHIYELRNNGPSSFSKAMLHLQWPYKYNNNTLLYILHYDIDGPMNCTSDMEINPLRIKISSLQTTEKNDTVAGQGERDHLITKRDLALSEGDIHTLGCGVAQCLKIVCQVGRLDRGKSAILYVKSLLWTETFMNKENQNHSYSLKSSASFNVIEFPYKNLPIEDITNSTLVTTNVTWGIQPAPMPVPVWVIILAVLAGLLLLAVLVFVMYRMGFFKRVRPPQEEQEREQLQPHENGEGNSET
human αvβ6 integrin on cells (human), sequence (P18564 22-788, chain 2 of 2, further chain): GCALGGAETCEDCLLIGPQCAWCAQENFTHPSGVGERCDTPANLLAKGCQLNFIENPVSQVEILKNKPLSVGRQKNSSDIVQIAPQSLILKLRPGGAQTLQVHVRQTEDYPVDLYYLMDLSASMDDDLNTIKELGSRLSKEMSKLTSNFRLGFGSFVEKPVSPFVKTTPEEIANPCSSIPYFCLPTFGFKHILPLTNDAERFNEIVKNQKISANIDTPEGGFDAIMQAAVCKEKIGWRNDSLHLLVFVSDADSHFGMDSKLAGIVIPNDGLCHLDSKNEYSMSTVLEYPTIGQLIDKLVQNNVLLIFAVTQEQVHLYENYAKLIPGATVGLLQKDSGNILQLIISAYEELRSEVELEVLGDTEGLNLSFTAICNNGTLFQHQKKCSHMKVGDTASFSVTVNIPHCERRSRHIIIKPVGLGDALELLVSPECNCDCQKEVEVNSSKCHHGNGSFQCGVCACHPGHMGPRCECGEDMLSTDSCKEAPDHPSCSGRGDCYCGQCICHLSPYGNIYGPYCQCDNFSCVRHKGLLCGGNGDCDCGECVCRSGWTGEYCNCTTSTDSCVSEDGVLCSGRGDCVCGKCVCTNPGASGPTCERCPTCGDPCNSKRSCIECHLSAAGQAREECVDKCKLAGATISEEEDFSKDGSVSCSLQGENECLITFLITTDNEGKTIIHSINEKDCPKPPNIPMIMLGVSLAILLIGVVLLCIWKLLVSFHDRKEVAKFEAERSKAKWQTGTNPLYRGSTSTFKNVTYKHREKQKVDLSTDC

[7] = target: human αvβ6 integrin on cells (human) (UniProt P06756); experiment: cell adhesion assay: SCC-14 cells to LAP, inhibition by m3G9
[8] = target: rhesus monkey αvβ6 integrin on 4MBr5 cells (rhesus monkey) (UniProt H9ETF2); experiment: cell-based or functional assay
[9] = target: human αvβ6 integrin on cells (human) (UniProt P06756); experiment: cell-based or functional assay
[10] = target: rhesus monkey αvβ6 integrin on 4MBr5 cells (rhesus monkey) (UniProt H9ETF2); experiment: cell adhesion assay: 4MBr5 cells to LAP; the text gives the cell lines the other way round than the table
[11] = target: African green monkey αvβ6 integrin on 12MBr6 cells (African green monkey); experiment: cell adhesion assay: labelled 12MBr6 cells on LAP-coated plate, inhibition by m3G9
[12] = target: human αvβ6 integrin on cells (human) (UniProt P06756); experiment: cell adhesion assay: Detroit562 cells to LAP, inhibition by m3G9
[13] = target: African green monkey αvβ6 integrin on 12MBr6 cells (African green monkey); experiment: flow cytometry titration on 12MBr6 cells; given as ED50

αvβ6, sequence (P06756 31-992, chain 1 of 2): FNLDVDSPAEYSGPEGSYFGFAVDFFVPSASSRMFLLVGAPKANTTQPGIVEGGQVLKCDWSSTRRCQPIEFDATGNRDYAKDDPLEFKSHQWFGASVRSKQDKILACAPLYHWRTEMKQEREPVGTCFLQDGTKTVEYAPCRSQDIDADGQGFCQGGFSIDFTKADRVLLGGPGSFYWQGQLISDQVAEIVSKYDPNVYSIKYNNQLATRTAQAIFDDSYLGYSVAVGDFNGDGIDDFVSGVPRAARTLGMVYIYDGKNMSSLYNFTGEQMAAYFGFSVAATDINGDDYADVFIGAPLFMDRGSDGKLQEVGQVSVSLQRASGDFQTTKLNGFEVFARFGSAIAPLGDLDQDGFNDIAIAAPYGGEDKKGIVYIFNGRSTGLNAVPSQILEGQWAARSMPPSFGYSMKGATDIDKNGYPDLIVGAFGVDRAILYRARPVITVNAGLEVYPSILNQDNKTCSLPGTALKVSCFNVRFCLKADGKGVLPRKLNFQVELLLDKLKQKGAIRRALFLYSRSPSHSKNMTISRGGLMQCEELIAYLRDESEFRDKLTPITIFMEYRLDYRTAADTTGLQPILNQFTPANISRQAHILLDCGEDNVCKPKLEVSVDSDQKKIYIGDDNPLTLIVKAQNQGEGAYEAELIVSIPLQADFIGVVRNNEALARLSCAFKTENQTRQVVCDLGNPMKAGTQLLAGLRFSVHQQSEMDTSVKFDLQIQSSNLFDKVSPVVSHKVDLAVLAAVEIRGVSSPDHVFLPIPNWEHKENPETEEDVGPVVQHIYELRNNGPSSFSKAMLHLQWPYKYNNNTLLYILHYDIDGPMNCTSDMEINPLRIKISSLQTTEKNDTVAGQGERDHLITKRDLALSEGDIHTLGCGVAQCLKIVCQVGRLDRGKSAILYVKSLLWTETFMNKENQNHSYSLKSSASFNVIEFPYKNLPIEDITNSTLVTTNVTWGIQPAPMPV
αvβ6, sequence (P18564 22-709, chain 2 of 2, further chain): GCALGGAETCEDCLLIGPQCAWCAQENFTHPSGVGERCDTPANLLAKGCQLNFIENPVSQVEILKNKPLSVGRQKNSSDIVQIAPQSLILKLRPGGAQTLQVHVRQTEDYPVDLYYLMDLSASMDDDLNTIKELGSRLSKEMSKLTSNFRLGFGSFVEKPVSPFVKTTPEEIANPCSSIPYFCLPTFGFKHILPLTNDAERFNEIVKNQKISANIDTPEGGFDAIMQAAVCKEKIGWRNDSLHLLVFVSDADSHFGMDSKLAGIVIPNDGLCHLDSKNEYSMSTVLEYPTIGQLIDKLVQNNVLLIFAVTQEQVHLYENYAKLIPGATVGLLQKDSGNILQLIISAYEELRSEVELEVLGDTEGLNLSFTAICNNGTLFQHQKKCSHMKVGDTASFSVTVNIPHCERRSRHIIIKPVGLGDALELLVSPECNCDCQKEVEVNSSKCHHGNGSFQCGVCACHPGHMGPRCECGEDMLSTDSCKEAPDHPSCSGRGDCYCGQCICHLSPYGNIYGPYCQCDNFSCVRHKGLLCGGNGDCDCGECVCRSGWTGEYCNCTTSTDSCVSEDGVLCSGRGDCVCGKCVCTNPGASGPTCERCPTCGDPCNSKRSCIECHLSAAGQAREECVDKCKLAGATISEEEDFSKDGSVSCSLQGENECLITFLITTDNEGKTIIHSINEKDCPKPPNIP

EC50 (αvβ6) | IC50 [1] | IC50 [2] | EC50 [3] | EC50 [4] | EC50 [5] | IC50 [6] | IC50 [7] | Coculture IC50, µg/mL (TGFβ activation by 4MBr5 cells, TMLC luciferase reporter cells) [8] | IC50, coculture assay (4MBr5) [8] | Coculture IC50, µg/mL (TGFβ activation by SW480β6 cells, TMLC luciferase reporter cells) [9] | IC50, coculture assay (SW480β6) [9] | IC50 [10] | IC50 [11] | IC50 [12] | EC50 [13] | Substance
0.021 µg/mL | – | – | – | – | – | – | – | – | – | – | – | – | – | – | – | m3G9 (murine secondary)
– | 0.22 µg/mL | 0.22 µg/mL | 0.3 µg/mL | 0.3 µg/mL | 0.38 µg/mL | 0.03 µg/mL | 0.16 µg/mL | 0.31 µg/mL | 0.4 µg/mL | 0.37 µg/mL | 0.24 µg/mL | 0.29 µg/mL | 0.29 µg/mL | 0.04 µg/mL | 0.38 µg/mL | murine monoclonal antibody 6.3G9
